{
  "source": "paper PMC12514038",
  "about": "(2025)",
  "test_in_all_cases": "SPR",
  "key": {"VACV , residues A3-G181 [1]": {"molecular_target": "T1, VACV , residues A3-G181 (vaccinia virus (VACV), UniProt P07612 3-181)"}, "[2]": {"molecular_target": "T2, MPXV [change], residues A3-G181, C-terminal 6×His tag (pCAGGS, Expi293F) (mpox virus (MPXV))"}, "VACV , residues A3-G181 [3]": {"molecular_target": "T1, VACV , residues A3-G181", "remark": "listed apart in the source"}, "[4]": {"molecular_target": "T2, MPXV [change], residues A3-G181, …", "remark": "listed apart in the source"}, "VACV , residues A3-G181 [5]": {"molecular_target": "T1, VACV , residues A3-G181", "remark": "listed apart in the source"}},
  "note": "Where two headings read alike, the source gives them in different places.",
  "data": [
    {"binder": "mMM1-16 monoclonal antibody (mouse variable regions, human IgG1/Igκ constant regions) (antibody, V domains shown) VH: QIQLQQSGAELARPGASVKLSCKASGYTFITYWIQWVKQRPGQGLEWIGAIYPGDGDTRYTQKFKAKATLTADKSSSTAYMQLSTLTSEDSAVYFCAKGDTYPAAMDYWGQGTSVTVSS VL: DIQMTQSPASLSASVGETVTITCRTSGNIHNYLAWYQQKQGRSPQLLVNNAKTLADGVPSRFSGSGSGTQYSLKINSLQPEDIGSYYCQHFWITPYTFGGGTKLEIK", "values": [
      {"measurement": "Kd", "setting": "VACV , residues A3-G181 [1]", "result": 0.72, "unit": "nM"},
      {"measurement": "Kd", "setting": "[2]", "result": 6.3, "unit": "nM"}
    ]},
    {"binder": "hmMM1-40, humanized mMM1-40 monoclonal antibody (antibody, V domains shown) VH: QVQLVQSGAEVKKPGASVKVSCKASGYIFTRYWMHWVRQAPGQGLEWMGYINPSTGYTEYNQKFKDRVTMTRDTSTSTVYMELSSLRSEDTAVYYCARSDYTNYVFEYWGQGTLVTVSS VL: DVVMTQSPLSLPVTLGQPASISCRSSQSLVHSNGNTYLHWFQQRPGQSPRRLIYKVSNRFSGVPDRFSGSGSGTDFTLKISRVEAEDVGVYYCSQSTHVPYTFGGGTKVEIK", "values": [
      {"measurement": "Kd", "setting": "VACV , residues A3-G181 [3]", "result": 0.47, "unit": "nM"},
      {"measurement": "Kd", "setting": "[4]", "result": 0.48, "unit": "nM"},
      {"measurement": "koff", "setting": "VACV , residues A3-G181 [5]", "result": "6.19e-05", "unit": "s⁻¹"}
    ]}
  ]
}
